Test results: article PMC4797280 (Nucleic Acids Research, 2016)
Where two headings read alike, the source gives them in different places.

T1: Mre11^T188I (LexA-Mre11^T188I) (S. cerevisiae, UniProt P32829 1-692, T188I)
T1 sequence (looked up): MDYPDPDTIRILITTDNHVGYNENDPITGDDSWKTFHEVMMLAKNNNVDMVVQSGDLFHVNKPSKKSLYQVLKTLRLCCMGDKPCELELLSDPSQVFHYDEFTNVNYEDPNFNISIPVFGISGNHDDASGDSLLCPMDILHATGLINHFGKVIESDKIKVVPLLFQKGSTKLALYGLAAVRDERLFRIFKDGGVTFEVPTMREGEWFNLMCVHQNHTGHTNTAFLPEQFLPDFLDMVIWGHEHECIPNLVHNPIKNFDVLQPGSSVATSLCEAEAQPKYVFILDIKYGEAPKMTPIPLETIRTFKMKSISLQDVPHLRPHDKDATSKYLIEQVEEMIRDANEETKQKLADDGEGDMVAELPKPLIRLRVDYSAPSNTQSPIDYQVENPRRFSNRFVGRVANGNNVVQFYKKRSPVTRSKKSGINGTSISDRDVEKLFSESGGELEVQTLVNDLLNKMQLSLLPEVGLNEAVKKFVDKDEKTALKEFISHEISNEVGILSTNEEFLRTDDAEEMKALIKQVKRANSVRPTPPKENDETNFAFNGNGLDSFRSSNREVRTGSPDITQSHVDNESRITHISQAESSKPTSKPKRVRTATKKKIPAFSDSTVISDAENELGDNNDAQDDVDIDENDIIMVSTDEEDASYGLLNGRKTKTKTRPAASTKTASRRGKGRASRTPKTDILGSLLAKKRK

T2: S. cerevisiae Mre11 (LexA-Mre11) (S. cerevisiae, UniProt P32829 1-692)
T2 sequence (looked up): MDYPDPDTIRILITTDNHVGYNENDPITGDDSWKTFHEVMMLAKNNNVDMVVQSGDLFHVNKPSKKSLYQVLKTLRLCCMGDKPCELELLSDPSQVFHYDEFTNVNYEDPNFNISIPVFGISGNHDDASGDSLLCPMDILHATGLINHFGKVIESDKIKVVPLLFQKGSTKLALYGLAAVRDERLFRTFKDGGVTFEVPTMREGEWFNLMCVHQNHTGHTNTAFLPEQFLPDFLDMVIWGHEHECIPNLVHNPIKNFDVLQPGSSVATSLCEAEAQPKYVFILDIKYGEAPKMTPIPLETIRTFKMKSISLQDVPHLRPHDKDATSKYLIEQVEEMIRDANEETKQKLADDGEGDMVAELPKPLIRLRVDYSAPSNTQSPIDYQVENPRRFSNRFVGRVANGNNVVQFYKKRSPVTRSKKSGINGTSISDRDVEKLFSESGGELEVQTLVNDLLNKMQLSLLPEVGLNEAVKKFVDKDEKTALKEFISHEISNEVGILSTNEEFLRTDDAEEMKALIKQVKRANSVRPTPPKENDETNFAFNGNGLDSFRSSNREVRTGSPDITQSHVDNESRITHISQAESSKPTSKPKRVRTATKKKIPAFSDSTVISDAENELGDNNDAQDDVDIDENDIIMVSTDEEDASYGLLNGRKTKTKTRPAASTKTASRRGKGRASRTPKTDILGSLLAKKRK

T3: Mre11^D16A (LexA-Mre11^D16A) (S. cerevisiae, UniProt P32829 1-692, D16A)
T3 sequence (looked up): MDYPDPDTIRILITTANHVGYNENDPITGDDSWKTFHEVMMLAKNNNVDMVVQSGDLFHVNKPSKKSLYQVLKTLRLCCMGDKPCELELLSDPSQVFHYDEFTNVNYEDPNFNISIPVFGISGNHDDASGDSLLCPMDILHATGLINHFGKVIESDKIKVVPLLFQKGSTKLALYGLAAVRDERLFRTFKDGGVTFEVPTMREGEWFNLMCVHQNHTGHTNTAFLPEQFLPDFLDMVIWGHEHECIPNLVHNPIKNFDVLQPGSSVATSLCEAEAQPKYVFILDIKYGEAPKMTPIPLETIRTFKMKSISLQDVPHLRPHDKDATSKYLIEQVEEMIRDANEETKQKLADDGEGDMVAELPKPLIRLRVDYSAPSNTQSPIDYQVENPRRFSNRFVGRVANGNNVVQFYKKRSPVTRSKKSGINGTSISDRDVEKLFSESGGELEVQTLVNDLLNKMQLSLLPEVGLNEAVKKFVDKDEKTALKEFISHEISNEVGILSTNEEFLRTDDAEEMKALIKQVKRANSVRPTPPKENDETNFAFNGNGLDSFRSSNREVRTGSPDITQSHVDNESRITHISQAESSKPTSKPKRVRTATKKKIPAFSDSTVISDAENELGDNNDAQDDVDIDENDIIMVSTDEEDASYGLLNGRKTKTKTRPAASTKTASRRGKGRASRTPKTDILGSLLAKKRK

T4: Mre11^I158R (LexA-Mre11^I158R) (S. cerevisiae, UniProt P32829 1-692, I158R)
T4 sequence (looked up): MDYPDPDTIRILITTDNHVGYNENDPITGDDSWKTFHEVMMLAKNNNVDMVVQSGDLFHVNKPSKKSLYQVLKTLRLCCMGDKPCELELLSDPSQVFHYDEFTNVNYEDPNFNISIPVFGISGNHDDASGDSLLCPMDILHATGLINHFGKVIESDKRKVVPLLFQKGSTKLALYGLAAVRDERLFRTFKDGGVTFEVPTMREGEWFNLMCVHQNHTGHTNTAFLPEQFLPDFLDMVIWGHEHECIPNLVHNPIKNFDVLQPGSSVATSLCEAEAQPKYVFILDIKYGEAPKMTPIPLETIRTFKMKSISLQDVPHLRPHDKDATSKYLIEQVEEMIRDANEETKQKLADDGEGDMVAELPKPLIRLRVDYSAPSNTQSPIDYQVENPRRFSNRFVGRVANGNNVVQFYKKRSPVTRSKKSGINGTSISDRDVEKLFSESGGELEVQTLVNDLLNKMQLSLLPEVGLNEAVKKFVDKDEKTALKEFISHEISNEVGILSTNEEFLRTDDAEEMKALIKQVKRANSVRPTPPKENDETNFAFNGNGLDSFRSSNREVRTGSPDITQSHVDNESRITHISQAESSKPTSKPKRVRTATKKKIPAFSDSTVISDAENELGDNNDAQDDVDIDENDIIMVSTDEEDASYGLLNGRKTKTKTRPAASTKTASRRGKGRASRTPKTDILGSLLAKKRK

T5: Mre11^P84S (LexA-Mre11^P84S) (S. cerevisiae, UniProt P32829 1-692, P84S)
T5 sequence (looked up): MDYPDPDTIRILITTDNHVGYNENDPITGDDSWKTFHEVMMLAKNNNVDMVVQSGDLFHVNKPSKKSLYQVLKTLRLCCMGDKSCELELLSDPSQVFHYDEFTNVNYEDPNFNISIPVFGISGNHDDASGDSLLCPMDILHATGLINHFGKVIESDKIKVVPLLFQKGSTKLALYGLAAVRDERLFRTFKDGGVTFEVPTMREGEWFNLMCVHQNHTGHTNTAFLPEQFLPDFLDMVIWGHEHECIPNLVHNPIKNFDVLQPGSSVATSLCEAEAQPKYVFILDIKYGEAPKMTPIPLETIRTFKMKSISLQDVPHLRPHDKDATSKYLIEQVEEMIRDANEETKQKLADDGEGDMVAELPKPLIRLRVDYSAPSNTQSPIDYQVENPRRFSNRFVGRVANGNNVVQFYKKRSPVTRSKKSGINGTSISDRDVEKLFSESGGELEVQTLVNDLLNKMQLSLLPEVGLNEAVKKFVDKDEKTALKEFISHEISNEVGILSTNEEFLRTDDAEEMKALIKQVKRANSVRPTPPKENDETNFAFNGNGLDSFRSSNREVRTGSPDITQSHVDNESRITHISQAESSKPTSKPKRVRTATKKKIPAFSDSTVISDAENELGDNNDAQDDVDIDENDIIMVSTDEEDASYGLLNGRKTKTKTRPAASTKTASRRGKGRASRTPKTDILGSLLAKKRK


Assays:
Test in all cases: two-hybrid
[1] = target: S. cerevisiae Mre11 (LexA-Mre11) (S. cerevisiae) (UniProt P32829)
[2] = target: S. cerevisiae Mre11 (LexA-Mre11) (S. cerevisiae) (UniProt P32829); remark: listed apart in the source
[3] = target: T1, Mre11^T188I (LexA-Mre11^T188I)
[4] = target: T2, S. cerevisiae Mre11 (LexA-Mre11)
[5] = target: T3, Mre11^D16A (LexA-Mre11^D16A)
[6] = target: T4, Mre11^I158R (LexA-Mre11^I158R)
[7] = target: T5, Mre11^P84S (LexA-Mre11^P84S)
[8] = target: T2, S. cerevisiae Mre11 (LexA-Mre11); remark: listed apart in the source
[9] = target: T4, Mre11^I158R (LexA-Mre11^I158R); remark: listed apart in the source

Molecule | two-hybrid β-galactosidase activity (β-galactosidase units) [1] | two-hybrid β-galactosidase activity (β-galactosidase units) [2] | two-hybrid β-galactosidase activity [3] | two-hybrid β-galactosidase activity [4] | two-hybrid β-galactosidase activity [5] | two-hybrid β-galactosidase activity [6] | two-hybrid β-galactosidase activity [7] | two-hybrid β-galactosidase activity [8] | two-hybrid β-galactosidase activity [9]
Smt3 (Gal4AD-Smt3) (from UniProt Q12306 1-101) (natural protein) | 71.9 | 38.8 |  |  |  |  |  |  | 
Xrs2 (Gal4AD-Xrs2) (natural protein, S. cerevisiae, UniProt P33301 1-854, looked up) MWVVRYQNTLEDGSISFISCCLQAFKTYSIGRSSKNPLIIKNDKSISRQHITFKWEINNSSDLKHSSLCLVNKGKLTSLNKKFMKVGETFTINASDVLKSTIIELGTTPIRIEFEWINEVWNIPPHLTQFRTMLSEYGISTEISINDIPANLMISDYPKSEDNSIRELYALVSTIPMKKSRFLMELCNTLLPTSKTNLKFDEMWNDMISNPEYNVFDFDPNILLSKFMRLNNIRVLTTIKSEPRLSSLLRTFNINLFAFDNIDSLYKYVDSLEASTEYLILTTTDKKENGKILCTIKTMLTSIIDGTLSAVINMKGASSRTLDNGKFDQISEGMSTILKTSRAPEVEASPVVSKKRKLNRRRVLPLDSLDFFAGGLSTKTLSENRSLTDAKRLNCGAESKTVISSPNIAEADEKHAPFLQNALKPTEDIGKKSGHSSPGAIIVSSPNLGTVNTSEDSLDKSLQSHKLPQPSLPEVAGIGSQTISSNSADYETAAVNSMDDAEVTKNFRVNHHQNIEQPSKNIRKLSNYSREISSPLQENCKSPVKELSIKEKSGTPHAFVEAIQETKNREVKRVKSTIVELKDEELSEEAINQLKNLAIVEPSNNLLRKSFDSEGNKTSRTTEKWENSLMEPEWHKRKNFKTFVKVRPKSKAHKEEGKNNTQSSDFIRNAAFLITRNYVPLKKYSKKDTTTKWGTEENEDMFALTEMERFGSNTFMSDNINSNTIQKRSQALNRFTNEDSSNEGEEDSFSFSRCSGTAASVQPLKNKIFITDEDDLGDIDDKSDRLNHRENNRNLFVVKEMNLRPNLSEECSKQSRHSRSATSRSRGSFGASNNGDGDDDDDDGPKFTFKRRKG |  |  | 153 ± 4.7 β-galactosidase units | 188 ± 8.5 β-galactosidase units | 76.2 ± 7 β-galactosidase units | 37.9 ± 4 β-galactosidase units | 162 ± 6.4 β-galactosidase units | 125 ± 9.5 β-galactosidase units | 35.1 ± 1 β-galactosidase units

Continued, values first:

two-hybrid β-galactosidase activity (β-galactosidase units) [1] | two-hybrid β-galactosidase activity (β-galactosidase units) [2] | two-hybrid β-galactosidase activity [3] | two-hybrid β-galactosidase activity [4] | two-hybrid β-galactosidase activity [5] | two-hybrid β-galactosidase activity [6] | two-hybrid β-galactosidase activity [7] | two-hybrid β-galactosidase activity [8] | two-hybrid β-galactosidase activity [9] | Molecule
21.8 | 5.4 |  |  |  |  |  |  |  | Smt3-allR (Gal4AD-Smt3^allR) (from UniProt Q12306 1-101) (natural protein)
 |  | 60.1 ± 3.6 β-galactosidase units |  |  |  | 51.7 ± 3.1 β-galactosidase units |  |  | Smt3 (Gal4AD-Smt3) (natural protein, S. cerevisiae, UniProt Q12306 1-101, looked up) MSDSEVNQEAKPEVKPEVKPETHINLKVSDGSSEIFFKIKKTTPLRRLMEAFAKRQGKEMDSLRFLYDGIRIQADQTPEDLDMEDNDIIEAHREQIGGATY
